Assay [1] concerns the target Human α1-acid glycoprotein (AGP) (human) (UniProt P02763). Put plainly: SPR (Biacore T100), SubB immobilised. A general note: In SPR one partner is held on a chip, and binding of the other changes the refractive index at the surface.
Assay [2] shares this target. In words: SPR (Biacore […]), […], single cycle kinetics.

The term Kd denotes the free concentration of one partner at which half of the binding sites on the other are occupied at equilibrium, for simple one-to-one binding.

“Wild type SubB (subtilase cytotoxin B subunit) (from UniProt Q6EZC3 24-141) (other; other documents disagree on this pair)” returned a fold reduced binding affinity compared to bovine AGP in assay [1] of 13 fold. The Kd in assay [2] came out at 2120 nM.

The values above are taken from patent US20260139240A1.
